Reference: patent publication US20220088190A1 (published 2022)
One block for each binder: values may come before it.

Key:
[1] = target: T1, RAS G12V peptide on HLA-A*11:01 (human); experiment: multimer staining
T1 peptide: VVVGAVGVGK

[2] = target: T2, RAS wild type peptide on HLA-A*11:01 (human); experiment: killing
T2 peptide: VVVGAGGVGK

[3] = target: T3, RAS G12V peptide on HLA-A*03:01 (human); experiment: cytokine release
T3 peptide: VVVGAVGVGK

[4] = target: T4, RAS G12C peptide on HLA-A*11:01 (human); experiment: activation reporter or marker
T4 peptide: VVVGACGVGK

[5] = target: T5, RAS G12R peptide on HLA-B*07:02 (human); experiment: multimer staining
T5 peptide: GARGVGKSAL

[6] = target: T6, RAS G12D peptide on HLA-B*07:02 (human); experiment: activation reporter or marker
T6 peptide: GADGVGKSAL

[7] = target: T7, RAS G12V peptide on HLA-B*07:02 (human); experiment: activation reporter or marker
T7 peptide: GAVGVGKSAL

[8] = target: T8, RAS G12C peptide on HLA-B*07:02 (human); experiment: activation reporter or marker
T8 peptide: GACGVGKSAL

[9] = target: T9, RAS wild type peptide on HLA-B*07:02 (human); experiment: activation reporter or marker
T9 peptide: GAGGVGKSAL

[10] = target: T3, RAS G12V peptide on HLA-A*03:01; experiment: multimer staining
[11] = target: T10, RAS wild type peptide on HLA-A*03:01 (human); experiment: killing
T10 peptide: VVVGAGGVGK

[12] = target: T11, RAS G12D peptide on HLA-A*03:01 (human); experiment: activation reporter or marker
T11 peptide: VVVGADGVGK

[13] = target: T12, RAS G12R peptide on HLA-A*03:01 (human); experiment: activation reporter or marker
T12 peptide: VVVGARGVGK

[14] = target: T13, RAS G12C peptide on HLA-A*03:01 (human); experiment: activation reporter or marker
T13 peptide: VVVGACGVGK

[15] = target: T9, RAS wild type peptide on HLA-B*07:02; experiment: killing
[16] = target: T14, RAS G12V peptide on HLA-A*11:01 (human); experiment: multimer staining
T14 peptide: VVGAVGVGK

[17] = target: T15, RAS G12C peptide on HLA-A*11:01 (human); experiment: activation reporter or marker
T15 peptide: VVGACGVGK

[18] = target: T16, RAS wild type peptide on HLA-A*11:01 (human); experiment: activation reporter or marker
T16 peptide: VVGAGGVGK

[19] = target: T17, RAS G12D peptide on HLA-A*11:01 (human); experiment: activation reporter or marker
T17 peptide: VVGADGVGK

B1: TCR831 (TCR, V domains shown)
Valpha: ELKVEQNPLFLSMQEGKNYTIYCNYSTTSDRLYWYRQDPGKSLESLFVLLSNGAVKQEGRLMASLDTKARLSTLHITAAVHDLSATYFCAVDKDGGYQKVTFGTGTKLQVIP
Vbeta: GAVVSQHPSWVICKSGTSVKIECRSLDFQATTMFWYRQFPKQSLMLMATSNEGSKATYEQGVEKDKFLINHASLTLSTLTVTSAHPEDSSFYICSASPRAGQLSSYNSPLHFGNGTRLTVT
binding result [1]: recognises | binding result [2]: no recognition | binding result [3]: no recognition | binding result [4]: recognises

B2: TCR847 (TCR, V domains shown)
Valpha: SQQGEEDPQALSIQEGENATMNCSYKTSINNLQWYRQNSGRGLVHLILIRSNEREKHSGRLRVTLDTSKKSSSLLITASRAADTASYFCATFPNFGNEKLTFGTGTRLTIIP
Vbeta: DAGITQSPRHKVTETGTPVTLRCHQTENHRYMYWYRQDPGHGLRLIHYSYGVKDTDKGEVSDGYSVSRSKTEDFLLTLESATSSQTSVYFCAISESERYYEQYFGPGTRLTVT
binding result [5]: recognises | binding result [6]: no recognition | binding result [7]: no recognition | binding result [8]: no recognition | binding result [9]: no recognition

B3: TCR896 (TCR, V domains shown)
Valpha: AQKVTQAQTEISVVEKEDVTLDCVYETRDTTYYLFWYKQPPSGELVFLIRRNSFDEQNEISGRYSWNFQKSTSSFNFTITASQVVDSAVYFCALSEAGTYKYIFGTGTRLKVLA
Vbeta: DSGVTQTPKHLITATGQRVTLRCSPRSGDLSVYWYQQSLDQGLQFLIQYYNGEERAKGNILERFSAQQFPDLHSELNLSSLELGDSALYFCASSVAGGGQETQYFGPGTRLLVL
binding result [10]: recognises | binding result [11]: no recognition | binding result [12]: no recognition | binding result [13]: no recognition | binding result [14]: no recognition

B4: TCR864 (TCR, V domains shown)
Valpha: LAKTTQPISMDSYEGQEVNITCSHNNIATNDYITWYQQFPSQGPRFIIQGYKTKVTNEVASLFIPADRKSSTLSLPRVSLSDTAVYYCLVGDFNSNSGYALNFGKGTSLLVTP
Vbeta: GAGVSQSPSNKVTEKGKDVELRCDPISGHTALYWYRQRLGQGLEFLIYFQGNSAPDKSGLPSDRFSAERTGESVSTLTIQRTQQEDSAVYLCASKVYGYTFGSGTRLTVV
binding result [5]: recognises | binding result [15]: no recognition | binding result [6]: no recognition | binding result [7]: no recognition | binding result [8]: no recognition

Continued, in another order:

binding result [16]: recognises | binding result [17]: recognises | binding result [18]: no recognition | binding result [19]: recognises
B5: TCR897 (TCR, V domains shown)
Valpha: SQQGEEDPQALSIQEGENATMNCSYKTSINNLQWYRQNSGRGLVHLILIRSNEREKHSGRLRVTLDTSKKSSSLLITASRAADTASYFCATDPGGFKTIFGAGTRLFVKA
Vbeta: EAGVAQSPRYKIIEKRQSVAFWCNPISGHATLYWYQQILGQGPKLLIQFQNNGVVDDSQLPKDRFSAERLKGVDSTLKIQPAKLEDSAVYLCASSLYGGSISYEQYFGPGTRLTVT

binding result [1]: recognises | binding result [3]: no recognition | binding result [4]: recognises
B6: TCR833 (TCR, V domains shown)
Valpha: RKEVEQDPGPFNVPEGATVAFNCTYSNSASQSFFWYRQDCRKEPKLLMSVYSSGNEDGRFTAQLNRASQYISLLIRDSKLSDSATYLCAVNPPDTGFQKLVFGTGTRLLVSP
Vbeta: DVKVTQSSRYLVKRTGEKVFLECVQDMDHENMFWYRQDPGLGLRLIYFSYDVKMKEKGDIPEGYSVSREKKERFSLILESASTNQTSMYLCASSLSFRQGLREQYFGPGTRLTVT
binding result [2]: no recognition
